This note sets out measurements from patent US20230002478A1 (published 2023).

Assay in all cases: SPR
Assay [1] addresses SARS-CoV-2 spike protein, Delta variant (SPR) (SARS-CoV-2, UniProt P0DTC2 16-1213).
Assay [2] has as its target T1, SARS-CoV-2 spike protein, beta variant (SPR, FIG. 28 Panel B) (SARS-CoV-2, UniProt P0DTC2 16-1213).
Assay [3] addresses T2, SARS-CoV-2 spike protein, gamma variant (SPR, FIG. 28 Panel C) (SARS-CoV-2, UniProt P0DTC2 16-1213).
In assay [4] the target is T3, SARS-CoV-2 spike protein, kappa variant (SPR, FIG. 28 Panel D) (SARS-CoV-2, UniProt P0DTC2 16-1213).
Assay [5] has as its target SARS-CoV-2 S Trimer Alpha B.1.1.7 UK variant.
For assay [6], the target named is T2, SARS-CoV-2 spike protein, gamma variant …. This is another data set of the same source.
Assay [7] addresses T3, SARS-CoV-2 spike protein, kappa variant …. This is another data set of the same source.
Assay [8] concerns the target T1, SARS-CoV-2 spike protein, beta variant …. The source holds these as a separate data set.
Assay [9] has as its target SARS-CoV-2 spike protein, wildtype variant (SPR, FIG. 28 Panel A) (SARS-CoV-2, UniProt P0DTC2 16-1213).
Assay [10] has as its target SARS-CoV-2 mutant trimer UK TB918-09.

Where “and” joins values, the source holds several entries; their conditions need not be identical. Equal entries are not always repeated. Where two headings read alike, the source gives them in different places.

B1: antibody 339-031 (Fc fusion)
chain: EVQLVESGGGLVQPGGSLRLSCAASGSTFSINAMGWFRQAPGKEREFVAGITSSGGYTNYADSVKGRFTISADNSKNTAYLQMNSLKPEDTAVYYCAADGVPEYSDYASGPVWGQGTLVTVSS
Broadly, the Kd is the free concentration of one partner at which half of the binding sites on the other are occupied at equilibrium, for simple one-to-one binding. Low readings indicate a tighter complex, high ones a looser complex. Take B1: the Kd in assay [1] was < 0.011 nM; in assay [2] it was < 0.0096 nM; in assay [3], < 0.0094 nM; in [4], < 0.01 nM.

B2: T8339-031 (Fc fusion)
chain: EVQLVESGGGLVQPGGSLRLSCAASGSTFSINAMGWFRQAPGKEREFVAGITSSGGYTNYADSVKGRFTISADNSKNTAYLQMNSLKPEDTAVYYCAADGVPEYSDYASGPVWGQGTLVTVSS
Consider B2, for which the Kd in assay [5] was < 0.011 nM.

B3: antibody 202-03 (Fc fusion)
chain: EVQLVESGGGLVQPGGSLRLSCAASGFTFSPSWMGWFRQAPGKEREFVATINEYGGRNYADSVKGRFTISADNSKNTAYLQMNSLKPEDTAVYYCARVDRDFDYWGQGTLVTVSS
In the case of B3, the dissociation constant (Kd) in assay [1] is 0.312 nM; in [2], < 0.095 nM; in assay [6] it was < 0.041 nM; in assay [7] it was 0.105 nM; in assay [8], < 0.05 nM; in [9] it was < 0.064 nM. In addition, the Kd in [3] was < 0.073 nM; in assay [4] it was 0.272 nM.

B4: T8202-3 (TP37196F) (Fc fusion)
chain: EVQLVESGGGLVQPGGSLRLSCAASGFTFSPSWMGWFRQAPGKEREFVATINEYGGRNYADSVKGRFTISADNSKNTAYLQMNSLKPEDTAVYYCARVDRDFDYWGQGTLVTVSS
Turning to B4, the Kd in assay [5] was < 0.075 nM.

B5: 6-3 (Fc fusion)
chain: EVQLVESGGGLVQPGGSLRLSCAASGFTFSPSWMGWFRQAPGKEREFVATINEYGGRNYADSVKGRFTISADNSKNTAYLQMNSLKPEDTAVYYCARVDRDFDYWGQGTLVTVSS
B5: the Kd in assay [10] is 0.857 nM and 1.3 nM.
